Among the data in the supplement of paper PMC10567573 are protein stability index values, retold here.

First the molecules themselves.
B1: SETD8 (parent)
chain: KKAQGKTQQNRKLTDFYPVRRSSR
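Note: lentivirally expressed fusions sorted by FACS into six bins by GFP to DsRed ratio, PSI derived from sequencing read proportions per bin multiplied by bin number.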

The variants in this series derive from B1. The series is described as follows: protein stability index of a GFP-peptide fusion (GPS, HEK-293T) (PSI 1-6); higher = more stable. To be noted: c terminus: a fixed tail appended.
KKAQGPTQQNRKLTDFYPVRRSSR: the protein stability index was found to be 2.06.

In the case of KKAQGMTQQNRKLTDFYPVRRSSR, the protein stability index was 1.62.

Take KKAQGRTQQNRKLTDFYPVRRSSR: the protein stability index came to 3.1.

Turning to KKAQGATQQNRKLTDFYPVRRSSR, the protein stability index was determined as 3.18.

KKAQGNTQQNRKLTDFYPVRRSSR: the protein stability index came to 2.82.

For KKAQGSTQQNRKLTDFYPVRRSSR, the protein stability index was 1.73.

With KKAQGHTQQNRKLTDFYPVRRSSR, the protein stability index turned out to be 1.57.

Regarding KKAQGTTQQNRKLTDFYPVRRSSR, the protein stability index stood at 3.58.

With KKAQGDTQQNRKLTDFYPVRRSSR, the protein stability index is 2.54.

For KKAQGITQQNRKLTDFYPVRRSSR, the protein stability index turned out to be 2.09.

As to KKAQGWTQQNRKLTDFYPVRRSSR, the protein stability index was 2.33.

As to KKAQGCTQQNRKLTDFYPVRRSSR, the protein stability index was 3.03.

As for KKAQGVTQQNRKLTDFYPVRRSSR, the protein stability index worked out at 2.25.

For the variant KKAQGGTQQNRKLTDFYPVRRSSR, the protein stability index came out at 3.09.

For the variant KKAQGFTQQNRKLTDFYPVRRSSR, the protein stability index was 2.16.

For KKAQGKTQQNRKLTNFYPVRRSSR, the protein stability index stood at 2.92.

KKAQGKTQQNRKLTCFYPVRRSSR: the protein stability index came out at 2.52.

KKAQGKTQQNRKLTMFYPVRRSSR: the protein stability index came to 2.43.

Consider KKAQGKTQQNRKLTPFYPVRRSSR, for which the protein stability index worked out at 3.1.

For the variant KKAQGKTQQNRKLTFFYPVRRSSR, the protein stability index came to 2.74.

Turning to KKAQGKTQQNRKLTWFYPVRRSSR, the protein stability index was 4.09.

In the case of KKAQGKTQQNRKLTTFYPVRRSSR, the protein stability index is 3.5.

In the case of KKAQGKTQQNRKLTEFYPVRRSSR, the protein stability index came out at 4.29.

On to KKAQGKTQQNRKLTHFYPVRRSSR, for which the protein stability index was 2.42.

In the case of KKAQGKTQQNRKLTIFYPVRRSSR, the protein stability index was determined as 3.18.

Regarding KKAQGKTQQNRKLTRFYPVRRSSR, the protein stability index was found to be 3.62.

On to KKAQGKTQQNRKLTQFYPVRRSSR, for which the protein stability index came out at 2.36.

As to KKAQGKTQQNRKLTVFYPVRRSSR, the protein stability index turned out to be 2.72.

For the variant KKAQGKTQQNRKLTGFYPVRRSSR, the protein stability index amounted to 3.23.

With KKAQGKTQQNRKLTYFYPVRRSSR, the protein stability index turned out to be 2.77.

For KKAQGKTQQNRKLTLFYPVRRSSR, the protein stability index is 2.87.

With KKAQGKTQQNRKLTAFYPVRRSSR, the protein stability index is 2.85.

As to KKAQGKTQQNRKLTSFYPVRRSSR, the protein stability index came to 3.12.

Consider KKAQGKTNQNRKLTDFYPVRRSSR, for which the protein stability index was 2.89.

Turning to KKAQGKTMQNRKLTDFYPVRRSSR, the protein stability index was determined as 1.89.

On to KKAQGKTDQNRKLTDFYPVRRSSR, for which the protein stability index is 3.23.

With KKAQGKTCQNRKLTDFYPVRRSSR, the protein stability index was 3.34.

For the variant KKAQGKTEQNRKLTDFYPVRRSSR, the protein stability index worked out at 1.69.

For the variant KKAQGKTGQNRKLTDFYPVRRSSR, the protein stability index was found to be 2.28.

Turning to KKAQGKTVQNRKLTDFYPVRRSSR, the protein stability index turned out to be 3.2.

As to KKAQGKTRQNRKLTDFYPVRRSSR, the protein stability index came out at 2.39.

Consider KKAQGKTYQNRKLTDFYPVRRSSR, for which the protein stability index is 2.02.

Turning to KKAQGKTFQNRKLTDFYPVRRSSR, the protein stability index came to 3.67.

On to KKAQGKTSQNRKLTDFYPVRRSSR, for which the protein stability index stood at 2.69.

Take KKAQGKTAQNRKLTDFYPVRRSSR: the protein stability index was found to be 2.45.

As to KKAQGKTLQNRKLTDFYPVRRSSR, the protein stability index is 2.41.

Take KKAQGKTHQNRKLTDFYPVRRSSR: the protein stability index stood at 2.59.

As to KKAQGKTPQNRKLTDFYPVRRSSR, the protein stability index amounted to 2.94.

Regarding KKAQGKTWQNRKLTDFYPVRRSSR, the protein stability index is 3.29.

For the variant KKAQGKTQQNRKLTDFVPVRRSSR, the protein stability index worked out at 3.37.

Take KKAQGKTQQNRKLTDFLPVRRSSR: the protein stability index amounted to 2.84.

For the variant KKAQGKTQQNRKLTDFQPVRRSSR, the protein stability index is 4.09.

As for KKAQGKTQQNRKLTDFPPVRRSSR, the protein stability index was 5.8.

Consider KKAQGKTQQNRKLTDFMPVRRSSR, for which the protein stability index came to 3.05.

As to KKAQGKTQQNRKLTDFKPVRRSSR, the protein stability index amounted to 4.5.

With KKAQGKTQQNRKLTDFTPVRRSSR, the protein stability index turned out to be 2.06.

On to KKAQGKTQQNRKLTDFWPVRRSSR, for which the protein stability index stood at 1.41.

For the variant KKAQGKTQQNRKLTDFDPVRRSSR, the protein stability index is 4.52.

On to KKAQGKTQQNRKLTDFFPVRRSSR, for which the protein stability index stood at 2.72.

For the variant KKAQGKTQQNRKLTDFEPVRRSSR, the protein stability index came to 3.39.

As to KKAQGKTQQNRKLTDFNPVRRSSR, the protein stability index came out at 3.09.

Turning to KKAQGKTQQNRKLTDFCPVRRSSR, the protein stability index stood at 3.58.

In the case of KKAQGKTQQNRKLTDCYPVRRSSR, the protein stability index stood at 2.71.

Consider KKAQGKTQQNRKLTDPYPVRRSSR, for which the protein stability index was found to be 3.07.

For the variant KKAQGKTQQNRKLTDGYPVRRSSR, the protein stability index stood at 2.74.

On to KKAQGKTQQNRKLTDTYPVRRSSR, for which the protein stability index was determined as 3.17.

In the case of KKAQGKTQQNRKLTDIYPVRRSSR, the protein stability index amounted to 2.99.

As for KKAQGKTQQNRKLTDDYPVRRSSR, the protein stability index amounted to 2.58.

Turning to KKAQGKTQQNRKLTDQYPVRRSSR, the protein stability index was determined as 1.76.

As for KKAQGKTQQNRKLTDSYPVRRSSR, the protein stability index is 3.07.

Turning to KKAQGKTQQNRKLTDAYPVRRSSR, the protein stability index amounted to 2.54.

On to KKAQGKTQQNRKLTDYYPVRRSSR, for which the protein stability index was determined as 3.29.

For the variant KKAQGKTQQNRKLTDNYPVRRSSR, the protein stability index was 4.28.

With KKAQGKTQQNRKLTDMYPVRRSSR, the protein stability index is 3.81.

For KKAQGKTQQNRKLTDHYPVRRSSR, the protein stability index came out at 2.33.

As for KKAQGKTQQNRKLTDEYPVRRSSR, the protein stability index was 4.51.

With KKAQVKTQQNRKLTDFYPVRRSSR, the protein stability index amounted to 2.65.

As to KKAQRKTQQNRKLTDFYPVRRSSR, the protein stability index was 1.44.

In the case of KKAQLKTQQNRKLTDFYPVRRSSR, the protein stability index turned out to be 2.77.

With KKAQYKTQQNRKLTDFYPVRRSSR, the protein stability index was 2.92.

In the case of KKAQSKTQQNRKLTDFYPVRRSSR, the protein stability index was found to be 2.62.

With KKAQNKTQQNRKLTDFYPVRRSSR, the protein stability index amounted to 2.53.

Take KKAQGKTQKNRKLTDFYPVRRSSR: the protein stability index turned out to be 3.66.

KKAQGKTQMNRKLTDFYPVRRSSR: the protein stability index stood at 2.25.

In the case of KKAQGKTQYNRKLTDFYPVRRSSR, the protein stability index was 2.92.

KKAQGKTQSNRKLTDFYPVRRSSR: the protein stability index turned out to be 2.36.

For the variant KKAQGKTQGNRKLTDFYPVRRSSR, the protein stability index came to 1.89.

For the variant KKAQGKTQCNRKLTDFYPVRRSSR, the protein stability index was 3.93.

With KKAQGKTQLNRKLTDFYPVRRSSR, the protein stability index was 2.65.

Regarding KKAQGKTQPNRKLTDFYPVRRSSR, the protein stability index worked out at 1.78.

For KKAQGKTQANRKLTDFYPVRRSSR, the protein stability index stood at 3.26.

As for KKAQGKTQENRKLTDFYPVRRSSR, the protein stability index turned out to be 3.12.

For KKAQGKTQHNRKLTDFYPVRRSSR, the protein stability index turned out to be 4.29.

As for KKAQGKTQRNRKLTDFYPVRRSSR, the protein stability index amounted to 2.67.
